Data set [1] addresses T1, PlyCA (heavy chain of the streptococcal C1 bacteriophage lysin PlyC) (streptococcal C1 bacteriophage, UniProt Q7Y3F1 2-465).
T1 construct: One PlyCA for eight PlyCB in the holoenzyme (about 114 kDa by gel filtration); also called PlyC heavy chain; plyCA gene product
T1 sequence (looked up): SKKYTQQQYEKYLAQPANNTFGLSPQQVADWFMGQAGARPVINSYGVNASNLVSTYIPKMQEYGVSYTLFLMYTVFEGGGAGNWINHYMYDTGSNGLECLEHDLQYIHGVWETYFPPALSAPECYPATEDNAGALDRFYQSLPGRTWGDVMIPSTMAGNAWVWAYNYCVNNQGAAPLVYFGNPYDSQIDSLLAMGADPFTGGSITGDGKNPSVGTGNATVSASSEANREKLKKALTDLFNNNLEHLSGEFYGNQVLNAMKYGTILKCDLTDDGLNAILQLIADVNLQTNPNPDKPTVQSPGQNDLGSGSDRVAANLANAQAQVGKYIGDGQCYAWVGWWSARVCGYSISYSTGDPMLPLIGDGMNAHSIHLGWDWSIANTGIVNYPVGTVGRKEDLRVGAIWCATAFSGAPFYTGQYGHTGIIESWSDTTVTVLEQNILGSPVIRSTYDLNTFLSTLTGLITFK
Nature of the data set: native PAGE against SDS/PAGE (two bands, PlyCA and PlyCB); N-terminal sequencing of the native band gives both chains. The source says: PlyC Consists of a Heavy Chain (PlyCA) and a Light Chain (PlyCB)—PlyC purified from C₁ bacteriophage lysates behaves as a homogeneous protein on native-gel electrophoresis (FIG. 1A). Moreover, this protein band is responsible for the lytic activity, as observed by formation of a clearing zone on an overlay of streptococci-embedded agarose (FIG. 1B). […] N-terminal sequencing of the PlyC heavy and light chains results in two unique sequences ([…] and […], respectively), and sequencing of the native band results in a dual sequence, which corresponds exactly to both chains.
Expression and Purification of the PlyC Clone—PlyC is induced with 0.5% arabinose overnight from XL1-blue/pBAD24::plyC cultures. Cells are washed in 20 mM phosphate buffer at pH 7.0 and are lysed with 20% wt/vol chloroform to yield crude PlyC. Alternatively, group C streptococci are infected with the C1 bacteriophage as previously described (Nelson et al., 2001), and phage-produced PlyC are isolated from the crude lysate. Purification of the phage-derived enzyme and the recombinant enzyme are identical to previously described methods (Nelson et al., 2001). Purified enzymes are routinely stored in PBS at 4° C. and are stable for several months. Purification of the individually expressed heavy and light chains use the same column-chromatography methods as the native enzyme. […]

Data set [2] concerns the molecule itself. In words: gel filtration, with and without 0.1% SDS.
Data set [3] deals with the molecule itself. Nature of the data set: Superose 12 gel filtration. The source says:
N-terminal Deletion—The Del-8 mutant lacks the first 8 N-terminal amino acids of PlyCB but retains full binding activity. Formation of a stable octamer is confirmed by comparing the elution profile of the Del-8 PlyCB mutant on a Superose 12 gel to Bio-Rad gel filtration standards. Accordingly, the N-terminal region can be completely deleted and not affect formation of the stable octamer. Given the non-structural role of this sequence, this region can be modified or engineered.
A general note: In gel filtration, larger molecules generally elute earlier.

B1: PlyCB octamer (wild-type) (other)
chain: SKINVNVENVSGVQGFLFHTDGKESYGYRAFINGVEIGIKDIETVQGFQQIIPSINISKSDVEAIRKAMKK
notes: Ring of eight identical PlyCB monomers, about 64 kDa; the partner of PlyCA in the PlyC holoenzyme; also called octameric protein
As to B1, in data set [1], the binding result is “binds”.

B2: PlyCB monomer (wild-type, light chain of the streptococcal C1 bacteriophage lysin PlyC) (other)
chain: SKINVNVENVSGVQGFLFHTDGKESYGYRAFINGVEIGIKDIETVQGFQQIIPSINISKSDVEAIRKAMKK
notes: also called PlyC light chain; plyCB gene product
On to B2, for which, in data set [2], the binding result is reported as “binds”.

B3: Del-8 PlyCB mutant (8 amino acid N-terminal deletion of PlyCB), monomer (other)
chain: NVSGVQGFLFHTDGKESYGYRAFINGVEIGIKDIETVQGFQQIIPSINISKSDVEAIRKAMKK
notes: Monomer, used for the entry on self-assembly into the octamer; also called N-terminal deletion variant of PlyCB
For B3, the binding result in data set [3] is recorded as “binds”.

The values are drawn from US20090092555A1 (published 2009).
